Assay results from patent US20190336574A1 (TRUSTEES OF PRINCETON UNIVERSITY, published 2019).

Tests used:
[1] = molecular target: T1, His-SND1 (16-339), SN1/2 domains, wild type (human, UniProt Q7KZF4 16-339); assay: GST pull-down of His-SND1 (16-339), SDS-PAGE, Coomassie
T1 construct: also called His6-SND1 harboring the SN1/2 domains; not shown: N-terminal His tag (His6, His8 or His) with TEV site, pQlink vector
T1 sequence: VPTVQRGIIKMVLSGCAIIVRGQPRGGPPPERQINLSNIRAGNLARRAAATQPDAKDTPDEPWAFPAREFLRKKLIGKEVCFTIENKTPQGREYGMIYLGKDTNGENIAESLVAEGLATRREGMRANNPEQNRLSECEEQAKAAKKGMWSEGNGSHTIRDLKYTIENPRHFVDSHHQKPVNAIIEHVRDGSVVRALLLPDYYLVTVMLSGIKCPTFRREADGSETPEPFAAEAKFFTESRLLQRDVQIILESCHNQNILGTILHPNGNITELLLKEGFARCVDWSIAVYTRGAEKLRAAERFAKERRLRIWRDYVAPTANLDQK
Description: (§1) GST-Mediated Pull-Down Assay: ˜20 μg of GST-MTDH (different truncation forms and site mutants) was bound to 10 μl of glutathione resin via GST tag. The resin was washed with 200 μl assay buffer (25 mM Tris, PH8.0, 150 mM NaCl, 3 mM DTT) three times to remove the excess unbound protein. […] The mixture was washed with 200 μl assay buffer twice before examined by SDS-PAGE, and visualized by Coomassie blue staining. The experiments were repeated 3 times and the ratio of SND1 associated with GST-MTDH was analyzed by ImageJ.

[2] = molecular target: T1, His-SND1 (16-339), SN1/2 domains, wild …; assay: GST pull-down on glutathione resin, SDS-PAGE, Coomassie blue; normalised percentage of binding, mean±SEM of three experiments
From the text: The proteins bound to GS4B were examined on SDS-PAGE and visualized by Coomassie blue staining. […] The bound proteins were examined as in (FIG. 22A). For both (FIG. 22A) and (FIG. 22B), experiments were repeated three times; representative results are shown. The normalized percentage of binding was averaged from three experiments; mean±SEM was shown below the data. (FIG. 22C) HEK293T cells were transfected with human HA-SND1, WT Myc-MTDH or Myc-MTDH with indicated single point mutation. Lysates were immunoprecipitated with anti-Myc antibody and immunoblotted with the indicated antibodies. (FIG. 22D) HEK293T cells were transfected with human Myc-MTDH, WT HA-SND1 or mutant HA-SND1 with indicated single point mutations or deletions. Lysates were immunoprecipitated with anti-Myc and immunoblotted with the indicated antibodies.
as §1
Identification of MTDH and SND1 mutants deficient in binding: To gain insight into how the interface characterized above contributes to MTDH-SND1 interaction, structure-guided mutagenesis studies were performed.

B1: GST-MTDH (364-582) W394A (other)
chain: YQWDVSRNQPYIDDEWSGLNGLSSADPNSDANAPAEEWGNWVDEERASLLKSQEPIPDDQKVSDDDKEKGEGALPTGKSKKKKKKKKKQGEDNSTAQDTEELEKEIREDLPVNTSKTRPKQEKAFSLKTISTSDPAEVLVKNSQPIKTLPPATSTEPSVILSKSDSDKSSSQVPPILQETDKSKSNTKQNSVPPSQTKSETSWESPKQIKKKKKARRET
notes: not shown: N-terminal GST tag with TEV site, pQlink vector
binding result [1]: no binding | % Maximum binding [2]: 1%
